Laboratory results reported in IntAct's records for PubMed 38225382.

B1: Syntaxin-1B (Homo sapiens), P61266 (parent)
chain: MKDRTQELRSAKDSDDEEEVVHVDRDHFMDEFFEQVEEIRGCIEKLSEDVEQVKKQHSAILAAPNPDEKTKQELEDLTADIKKTANKVRSKLKAIEQSIEQEEGLNRSSADLRIRKTQHSTLSRKFVEVMTEYNATQSKYRDRCKDRIQRQLEITGRTTTNEELEDMLESGKLAIFTDDIKMDSQMTKQALNEIETRHNEIIKLETSIRELHDMFVDMAMLVESQGEMIDRIEYNVEHSVDYVERAVSDTKKAVKYQSKARRKKIMIIICCVVLGVVLASSIGGTLGL
partner: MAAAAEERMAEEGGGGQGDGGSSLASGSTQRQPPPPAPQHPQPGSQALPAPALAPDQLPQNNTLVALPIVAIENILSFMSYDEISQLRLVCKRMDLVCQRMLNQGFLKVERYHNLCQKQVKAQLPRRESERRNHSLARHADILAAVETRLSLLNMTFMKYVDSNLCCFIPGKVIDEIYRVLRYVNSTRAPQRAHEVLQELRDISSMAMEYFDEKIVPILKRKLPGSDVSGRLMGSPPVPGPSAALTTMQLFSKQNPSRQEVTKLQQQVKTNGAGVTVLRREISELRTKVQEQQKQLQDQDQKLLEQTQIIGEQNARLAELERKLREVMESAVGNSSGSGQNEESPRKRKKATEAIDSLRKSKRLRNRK

Variants of: B1
Details: with fbx28_human FBXO28, Q9NVF7

Variant	effect of a mutation on the interaction
S239P	decreasing interaction strength
G226R	decreasing interaction strength
V216E	decreasing interaction strength
N134E	with no effect
